Measurements taken from patent US20240034792A1 (HARBOUR BIOMED SHANGHAI, published 2024).
Read-outs that look alike come from different tables or passages of the source.

Assays:
[1] = target: T1, Human PD-1 expressed on CHO-K1 cells (CHO-K1/hPD-1) (human, UniProt Q15116 25-288); experiment: FACS, CHO-K1/hPD-1 cells
T1 construct: whole, on cells; also called CHO-K1 cells overexpressing human PD-1
Protocol: In order to investigate the in vitro binding activity of the PD-1 antigen-binding proteins to human/cynomolgus monkey PD-1, the binding assay at the cellular level was performed using a CHO-K1 cell strain overexpressing human or cynomolgus monkey PD-1 (CHO-K1/hPD-1 or CHO-K1/cyno PD-1, from GenScript). Briefly, the CHO-K1-hPD-1 cells were digested and resuspended in an F-12K complete medium, and the cell density was adjusted to 1×10⁶ cells/mL. The cells were seeded in a 96-well V-bottom plate (Corning, Cat#3894) at 100 μL/well, followed by the addition of the test antigen-binding proteins with concentrations 2-fold of final concentrations obtained by 5-fold gradient dilution were each added at 100 μL/well. The mixtures were well mixed. The maximum final concentration of the antigen-binding proteins was 100 nM or 300 nM. A total of 8-11 concentrations were set. hIgG was used as a control. The cells were incubated at 4° C. for 1 h away from light. Thereafter, the cells in each well were rinsed twice with 100 μL of pre-cooled PBS, and centrifuged at 500 g at 4° C. for 5 min, and then the supernatant was discarded. Then 100 μL of a fluorescent secondary antibody (goat anti-human IgG (H+L) secondary antibody, Alexa Fluor® 488 conjugate, Invitrogen, Cat #A11013, 1:1000) was added to each well. The plate was incubated away from light at 4° C. for 30 min. The cells in each well were rinsed twice with 200 μL of pre-cooled PBS, and centrifuged at 500 g at 4° C. for 5 min, and then the supernatant was discarded. Finally, the cells in each well were resuspended in 200 μL of pre-cooled PBS, and the fluorescence signal values were read using a BD FACS CANTOII.

[2] = target: T2, Human PD-1 protein with histidine and avi tags (ACRO Biosystems, PD1-H82E4) (human, UniProt Q15116 25-167); experiment: BLI; ratio of kdis, apparently PR005090 over the variant
T2 construct: Captured on streptavidin (SA) sensors in the BLI assay; not shown: histidine and avi tags
T2 sequence (Q15116 25-167 limits assumed): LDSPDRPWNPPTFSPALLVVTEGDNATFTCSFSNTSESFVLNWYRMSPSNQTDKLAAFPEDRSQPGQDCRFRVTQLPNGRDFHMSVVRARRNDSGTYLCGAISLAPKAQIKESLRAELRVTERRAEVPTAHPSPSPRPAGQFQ
Protocol: (§1) Human PD-1 proteins with histidine and avi tags were purchased from the manufacturer ACRO Biosystems (Cat#: PD1-H82E4), and the assay buffer was 1× kinetics buffer (diluted from 10× kinetics buffer (ForteBio, Cat#: 18-1105)) for kinetic assay and dilution of antigens and antibodies. The binding kinetics between the antigen and the antibody was analyzed by the biolayer interferometry (BLI) technique using an Octet molecular interaction analyzer (ForteBio, model: Octet Red96e).
(§2) When the binding kinetics between the antigen and the antibody was determined, the rotation speed of the sensor was set at 1000 rpm/min. The eight SA sensors placed in a column were first equilibrated in an assay buffer for 10 min and then used to capture PD-1 at a capture height of 0.5 nm. Thereafter, the SA sensors were equilibrated in the assay buffer for 100 s, and then were associated with each antibody diluted to a single concentration and with a row of blank buffer wells for 180 s, followed by dissociation for 600 s. A new column of SA sensors were used in each cycle.
(§3) When data analysis was performed using Octet Data Analysis software (Fortebio, version 11.0), the reference signals were subtracted by a single reference mode (reference well), the data were fitted by a “1:1 Local fitting” method, and the kinetic parameters of the binding of the antigen to the antibody were calculated to obtain kon (1/Ms) values, kdis (1/s) values and KD (M) values.

[3] = target: T2, Human PD-1 protein with histidine and …; experiment: BLI (Octet Red96e), PD-1 captured on SA sensor, 1:1 local fit
Protocol: as §1, §2, §3

[4] = target: T1, Human PD-1 expressed on CHO-K1 cells …; experiment: FACS, CHO-K1/hPD-1 cells; remark: listed apart in the source
[5] = target: T1, Human PD-1 expressed on CHO-K1 cells …; experiment: FACS, CHO-K1/hPD-1 cells; remark: listed apart in the source

T1 sequence (Q15116 25-288): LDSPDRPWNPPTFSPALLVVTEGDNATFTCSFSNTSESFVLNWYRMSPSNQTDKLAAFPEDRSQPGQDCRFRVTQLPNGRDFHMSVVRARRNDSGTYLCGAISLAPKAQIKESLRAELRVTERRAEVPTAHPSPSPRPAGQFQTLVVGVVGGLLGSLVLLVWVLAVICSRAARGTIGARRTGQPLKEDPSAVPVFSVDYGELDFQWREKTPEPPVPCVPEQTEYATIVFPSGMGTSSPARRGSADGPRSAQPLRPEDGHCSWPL

| Binder | EC50 [1] [nM] | MFI Maximum [1] | kdis ratio [2] | Kd [3] [nM] | koff [3] [s⁻¹] | kon [3] [M⁻¹ s⁻¹] | EC50 [4] [nM] | Maximum (MFI) [4] | EC50 [5] [nM] | Maximum (MFI) [5] |
| --- | --- | --- | --- | --- | --- | --- | --- | --- | --- | --- |
| PR005096 (VHH, Monovalent single-domain (VH) variant of PR002481 with Flag-6His tag) VHH: EVQLVETGGGLIQPGGSLRLSCAASGFNVSSHYMSWVRQAPGKGREWVSIIDGGGSTYYADSVKGRFTISRDNSKNRLYLQMNSLRAEDTAMYYCARATRVPEKGGYNYPFNYWGQGTLVTVSS | 27.6 | 4320 | 1.91 | 10.4 | 0.000599 | 57900 |  |  |  |  |
| PR005099 (VHH, Monovalent single-domain (VH) variant of PR002481 with Flag-6His tag) VHH: EVQLVETGGGLIQPGGSLRLSCAASGFNVSSHYMSWVRQAPGKGREWVSIIDSAGSTYYADSVKGRFTISRDNSKNRLYLQMNSLRAEDTAMYYCARATAVAEKNGYNYPFNYWGQGTLVTVSS | 15.4 | 6350 | 2.51 | 4.32 | 0.000455 | 105000 |  |  |  |  |
| PR005570 (antibody, human IgG1, V domains shown, no light chain; also called anti-PD1 PR002481R2M1_H3 HCAb hIgG1) VH: EVQLVETGGGLIQPGGSLRLSCAASGFNVSFYYMSWVRQAPGKGREWVSIIDKGGSTYYGDSVKGRFTISRDNSKNRLYLQMNSLRAEDTAMYYCARATEVREKNGYNYPFNYWGQGTLVTVSS |  |  |  |  |  |  | 6.54 | 3.18e+06 |  |  |
| PR005569 (antibody, human IgG1, V domains shown, no light chain; also called anti-PD1 PR002481R2M4_E2 HCAb hIgG1) VH: EVQLVETGGGLIQPGGSLRLSCAASGFNVSFYYMSWVRQAPGKGREWVSIIDKSGSTYYAASVKGRFTISRDNSKNRLYLQMNSLRAEDTAMYYCARATEVREKNGYNYPFNYWGQGTLVTVSS |  |  |  | 0.482 | 5.75e-06 | 11900 |  |  | 3.4 | 3.14e+06 |
| PR005098 (VHH, Monovalent single-domain (VH) variant of PR002481 with Flag-6His tag) VHH: EVQLVETGGGLIQPGGSLRLSCAASGFNVSSHYMSWVRQAPGKGREWVSIIDGGGSTYYADSVKGRFTISRDNSKNRLYLQMNSLRAEDTAMYYCARATQVREKGGYNYPFNYWGQGTLVTVSS | 18.4 | 5720 | 2.9 | 5.88 | 0.000394 | 67100 |  |  |  |  |
| PR005583 (antibody, human IgG1, V domains shown, no light chain; also called anti-PD1 PR002481Com_29 HCAb hIgG1) VH: EVQLVETGGGLIQPGGSLRLSCAASGFNVASFYMSWVRQAPGKGREWVSIIDKAGSTYYADSVKGRFTISRDNSKNRLYLQMNSLRAEDTAMYYCARATEVREKQGYNYPFNYWGQGTLVTVSS |  |  |  | 1.69 | 1.65e-05 | 8280 |  |  | 4.79 | 2.76e+06 |
| PR005572 (antibody, human IgG1, V domains shown, no light chain; also called anti-PD1 PR002481Com_32 HCAb hIgG1) VH: EVQLVETGGGLIQPGGSLRLSCAASGFNVAFYYMSWVRQAPGKGREWVSIIDKGGSTYYADSVKGRFTISRDNSKNRLYLQMNSLRAEDTAMYYCARATEVREKQGYNYPFNYWGQGTLVTVSS |  |  |  | 3.32 | 4.28e-05 | 12900 |  |  | 4.68 | 3.04e+06 |
| PR005585 (antibody, human IgG1, V domains shown, no light chain; also called anti-PD1 PR002481Com_35 HCAb hIgG1) VH: EVQLVETGGGLIQPGGSLRLSCAASGFTVSSFYMSWVRQAPGKGREWVSIIDKAGSTYYADSVKGRFTISRDNSKNRLYLQMNSLRAEDTAMYYCARATEVREKQGYNYPFNYWGQGTLVTVSS |  |  |  | 3.08 | 2.22e-05 | 13200 |  |  | 7.83 | 3.11e+06 |
| PR005571 (antibody, human IgG1, V domains shown, no light chain; also called anti-PD1 PR002481Com_31 HCAb hIgG1) VH: EVQLVETGGGLIQPGGSLRLSCAASGFNVSFYYMSWVRQAPGKGREWVSIIDKGGSTYYADSVKGRFTISRDNSKNRLYLQMNSLRAEDTAMYYCARATEVREKQGYNYPFNYWGQGTLVTVSS |  |  |  |  |  |  | 6.55 | 2.95e+06 |  |  |
| PR005577 (antibody, human IgG1, V domains shown, no light chain; also called anti-PD1 PR002481Com_26 HCAb hIgG1) VH: EVQLVETGGGLIQPGGSLRLSCAASGFNVASYYMSWVRQAPGKGREWVSIIDKAGSGYYADSVKGRFTISRDNSKNRLYLQMNSLRAEDTAMYYCARATEVREKQGYNYPFNYWGQGTLVTVSS |  |  |  |  |  |  |  |  | 6.5 | 2.49e+06 |
| PR005100 (VHH, Monovalent single-domain (VH) variant of PR002481 with Flag-6His tag) VHH: EVQLVETGGGLIQPGGSLRLSCAASGFNVSSHYMSWVRQAPGKGREWVSIIDRGGSKYYADSVKGRFTISRDNSKNRLYLQMNSLRAEDTAMYYCARATAVAEKNGYNYPFNYWGQGTLVTVSS | 19 | 6510 | 3.8 | 11.6 | 0.000301 | 26000 |  |  |  |  |

Next, values leading:

| EC50 [1] [nM] | MFI Maximum [1] | kdis ratio [2] | Kd [3] [nM] | koff [3] [s⁻¹] | kon [3] [M⁻¹ s⁻¹] | EC50 [4] [nM] | Maximum (MFI) [4] | EC50 [5] [nM] | Maximum (MFI) [5] | Binder |
| --- | --- | --- | --- | --- | --- | --- | --- | --- | --- | --- |
| 22.1 | 6900 | 6.61 | 58.8 | 0.000173 | 2940 |  |  |  |  | PR005101 (VHH, Monovalent single-domain (VH) variant of PR002481 with Flag-6His tag) VHH: EVQLVETGGGLIQPGGSLRLSCAASGFNVSSHYMSWVRQAPGKGREWVSIIDKGGGTYYADSVKGRFTISRDNSKNRLYLQMNSLRAEDTAMYYCARATAVAEKNGYNYPFNYWGQGTLVTVSS |
| 12.2 | 6560 | 4.25 | 5.99 | 0.000268 | 44800 |  |  |  |  | PR005102 (VHH, Monovalent single-domain (VH) variant of PR002481 with Flag-6His tag) VHH: EVQLVETGGGLIQPGGSLRLSCAASGFNVSSHYMSWVRQAPGKGREWVSIIDRGGSTYYADSVKGRFTISRDNSKNRLYLQMNSLRAEDTAMYYCARATAVAEKNGYNYPFNYWGQGTLVTVSS |
|  |  |  | 6.46 | 4.28e-05 | 12900 |  |  | 3.93 | 2.58e+06 | PR005575 (antibody, human IgG1, V domains shown, no light chain; also called anti-PD1 PR002481Com_24 HCAb hIgG1) VH: EVQLVETGGGLIQPGGSLRLSCAASGFNVASHYMSWVRQAPGKGREWVSIIDKAGSGYYADSVKGRFTISRDNSKNRLYLQMNSLRAEDTAMYYCARATEVREKQGYNYPFNYWGQGTLVTVSS |
| 14.5 | 6890 | 4.54 | 79.6 | 0.000252 | 3160 |  |  |  |  | PR005103 (VHH, Monovalent single-domain (VH) variant of PR002481 with Flag-6His tag) VHH: EVQLVETGGGLIQPGGSLRLSCAASGFNVSSHYMSWVRQAPGKGREWVSIIDRGGGTYYADSVKGRFTISRDNSKNRLYLQMNSLRAEDTAMYYCARATAVAEKNGYNYPFNYWGQGTLVTVSS |
| 17.9 | 4080 | 1.46 | 13.9 | 0.000784 | 56600 |  |  |  |  | PR005097 (VHH, Monovalent single-domain (VH) variant of PR002481 with Flag-6His tag) VHH: EVQLVETGGGLIQPGGSLRLSCAASGFNVSSHYMSWVRQAPGKGREWVSIIDGGGSTYYADSVKGRFTISRDNSKNRLYLQMNSLRAEDTAMYYCARATAVREKNGYNYPFNYWGQGTLVTVSS |
|  |  |  |  |  |  |  |  | 4.28 | 2.71e+06 | PR005578 (antibody, human IgG1, V domains shown, no light chain; also called anti-PD1 PR002481Com_27 HCAb hIgG1) VH: EVQLVETGGGLIQPGGSLRLSCAASGFNVASYYMSWVRQAPGKGREWVSIIDKAGSGYYADSVKGRFTISRDNSKNRLYLQMNSLRAEDTAMYYCARATAVREKQGYNYPFNYWGQGTLVTVSS |
| 11.8 | 7300 | 4.7 | 3.08 | 0.000243 | 79000 |  |  |  |  | PR005104 (VHH, Monovalent single-domain (VH) variant of PR002481 with Flag-6His tag) VHH: EVQLVETGGGLIQPGGSLRLSCAASGFNVSSHYMSWVRQAPGKGREWVSIIDISGSTYYADSVKGRFTISRDNSKNRLYLQMNSLRAEDTAMYYCARATAVAEKNGYNYPFNYWGQGTLVTVSS |
